Key:
Assay in all cases: cAMP activity assay (pCRE β-galactosidase reporter), transfected HEK293T cells
Type in all cases: cell-based
RXFP1 A68^Δ = molecular target: T1, RXFP1 A68^Δ (Homo sapiens, UniProt Q9HBX9, DEL90-90); conditions: construct A68^Δ, ±s.e.m.
T1 construct: transiently transfected human embryonic kidney (HEK) 293T cells expressing full-length RXFP1 and mutants; expressed in transfected cells; host or cells: HEK293T
T1 sequence (Q9HBX9 with tags, fused parts or gaps DEL90-90 limits assumed): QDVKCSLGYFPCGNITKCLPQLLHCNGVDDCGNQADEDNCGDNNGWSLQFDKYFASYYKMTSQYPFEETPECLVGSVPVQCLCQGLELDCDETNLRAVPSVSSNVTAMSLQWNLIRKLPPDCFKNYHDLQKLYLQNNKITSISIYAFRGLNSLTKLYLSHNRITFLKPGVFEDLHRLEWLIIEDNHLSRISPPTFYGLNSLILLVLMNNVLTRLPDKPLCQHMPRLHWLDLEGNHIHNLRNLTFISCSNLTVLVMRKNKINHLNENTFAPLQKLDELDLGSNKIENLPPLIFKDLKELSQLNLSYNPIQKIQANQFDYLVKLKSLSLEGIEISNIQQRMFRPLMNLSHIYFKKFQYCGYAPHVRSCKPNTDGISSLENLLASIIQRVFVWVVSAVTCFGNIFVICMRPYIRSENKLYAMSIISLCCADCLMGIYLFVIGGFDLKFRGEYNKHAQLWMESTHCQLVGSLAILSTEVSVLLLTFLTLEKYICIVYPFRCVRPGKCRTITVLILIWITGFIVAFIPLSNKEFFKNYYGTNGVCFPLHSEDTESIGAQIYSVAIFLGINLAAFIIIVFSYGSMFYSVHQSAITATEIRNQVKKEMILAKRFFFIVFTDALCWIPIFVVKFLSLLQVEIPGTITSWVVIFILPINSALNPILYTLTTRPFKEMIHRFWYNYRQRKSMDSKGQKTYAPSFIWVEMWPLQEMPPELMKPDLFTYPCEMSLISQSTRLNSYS
Summary of the method: (§1)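 HEK293T cells transfected with mutant RXFP1 and pCRE β-galactosidase reporter, stimulated with H2 relaxin in minimal media/1% DMSO. β-Galactosidase read with chlorophenol red-β-D-galactopyranoside at 570 nm; responses pooled from ≥3 triplicate experiments as % of 5 μM forskolin maximum.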

RXFP1 C40A^ins = molecular target: T2, RXFP1 C40A^ins (Homo sapiens, UniProt Q9HBX9, INS62A); conditions: construct C40A^ins
T2 construct: cells expressing full-length RXFP1 and mutants; expressed in transfected cells; host or cells: HEK293T
T2 sequence (Q9HBX9 with tags, fused parts or gaps INS62A limits assumed): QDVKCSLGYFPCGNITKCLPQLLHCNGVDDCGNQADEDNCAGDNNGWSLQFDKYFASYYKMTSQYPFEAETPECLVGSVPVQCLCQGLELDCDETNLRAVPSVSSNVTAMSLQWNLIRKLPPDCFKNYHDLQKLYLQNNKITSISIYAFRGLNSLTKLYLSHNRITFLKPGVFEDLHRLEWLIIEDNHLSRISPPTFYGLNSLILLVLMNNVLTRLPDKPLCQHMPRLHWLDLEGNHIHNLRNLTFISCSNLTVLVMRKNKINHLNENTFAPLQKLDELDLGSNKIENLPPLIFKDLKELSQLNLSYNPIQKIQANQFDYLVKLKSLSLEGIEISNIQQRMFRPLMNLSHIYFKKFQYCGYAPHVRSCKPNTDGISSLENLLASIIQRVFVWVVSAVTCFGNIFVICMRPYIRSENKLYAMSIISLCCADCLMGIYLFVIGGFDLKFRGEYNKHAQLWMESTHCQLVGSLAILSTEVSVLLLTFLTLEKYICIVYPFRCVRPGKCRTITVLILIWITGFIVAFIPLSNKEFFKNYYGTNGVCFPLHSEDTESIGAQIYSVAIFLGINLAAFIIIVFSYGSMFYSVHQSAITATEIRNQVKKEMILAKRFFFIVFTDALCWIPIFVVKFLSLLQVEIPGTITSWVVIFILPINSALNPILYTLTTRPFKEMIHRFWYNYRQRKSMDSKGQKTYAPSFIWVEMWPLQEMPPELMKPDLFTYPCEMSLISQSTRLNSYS
Summary of the method: as §1

RXFP1 Y57A = molecular target: T3, RXFP1 Y57A (Homo sapiens, UniProt Q9HBX9, Y79A); conditions: construct Y57A, ±s.e.m.
T3 construct: cells expressing full-length RXFP1 and mutants; expressed in transfected cells; host or cells: HEK293T
T3 sequence (Q9HBX9 23-757 Y79A limits assumed): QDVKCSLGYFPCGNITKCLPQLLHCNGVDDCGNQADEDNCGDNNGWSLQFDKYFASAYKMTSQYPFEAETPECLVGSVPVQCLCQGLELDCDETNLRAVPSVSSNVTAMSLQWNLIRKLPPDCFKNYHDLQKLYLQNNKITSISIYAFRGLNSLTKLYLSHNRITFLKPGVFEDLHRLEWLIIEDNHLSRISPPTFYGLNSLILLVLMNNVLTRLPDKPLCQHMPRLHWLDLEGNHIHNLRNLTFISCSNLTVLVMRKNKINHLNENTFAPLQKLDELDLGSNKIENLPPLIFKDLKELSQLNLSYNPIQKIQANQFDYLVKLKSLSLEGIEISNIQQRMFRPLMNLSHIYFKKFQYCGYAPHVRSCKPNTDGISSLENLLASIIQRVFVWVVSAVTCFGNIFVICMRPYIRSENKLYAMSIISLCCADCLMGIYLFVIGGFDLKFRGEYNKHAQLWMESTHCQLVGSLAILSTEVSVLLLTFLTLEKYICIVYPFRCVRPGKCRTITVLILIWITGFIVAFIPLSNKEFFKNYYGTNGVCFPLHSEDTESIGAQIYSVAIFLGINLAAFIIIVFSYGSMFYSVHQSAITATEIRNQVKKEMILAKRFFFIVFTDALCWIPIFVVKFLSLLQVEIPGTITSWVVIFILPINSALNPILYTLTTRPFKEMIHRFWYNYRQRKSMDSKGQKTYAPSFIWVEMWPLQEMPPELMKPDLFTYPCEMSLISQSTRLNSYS
Summary of the method: as §1

[1] = percentage of maximum response to 5 μM Forskolin

H2 relaxin: two-chain 6-kDa peptide hormone structurally related to insulin; recombinant human gene-2 H2 relaxin provided by Corthera
H2 relaxin pEC50 (RXFP1 A68^Δ; cAMP reporter): 11.18±0.02 (3) | H2 relaxin Emax (RXFP1 A68^Δ; [1]): 93.78±3.19 (3) % | H2 relaxin pEC50 (RXFP1 C40A^ins; cAMP reporter): No activity | H2 relaxin Emax (RXFP1 C40A^ins; [1]): No activity | H2 relaxin pEC50 (RXFP1 Y57A; cAMP reporter): 10.93±0.10 (5) | H2 relaxin Emax (RXFP1 Y57A; [1]): 126.7±8.46 (5) %
